Experimental data published in patent publication US20150196651A1 (published 2015).
Square brackets hold non-standard residues; d marks the D form. Ends that are not written are not given here. * marks the point of attachment. Palmitoyl = CCCCCCCCCCCCCCCC(=O)*; Myristoyl = CCCCCCCCCCCCCC(=O)*; Nle = CCCC[C@H](N)C(=O)O; NOMe = CON*

T1: rat PrRP receptor in RC-4B/C cells (rat, UniProt Q64121 1-370)
T1 construct: whole, on cells; endogenous receptor of RC-4B/C cells (ATCC); also called rat receptor; GPR10 receptor expressed in rat hypophyseal cells
T1 sequence (looked up): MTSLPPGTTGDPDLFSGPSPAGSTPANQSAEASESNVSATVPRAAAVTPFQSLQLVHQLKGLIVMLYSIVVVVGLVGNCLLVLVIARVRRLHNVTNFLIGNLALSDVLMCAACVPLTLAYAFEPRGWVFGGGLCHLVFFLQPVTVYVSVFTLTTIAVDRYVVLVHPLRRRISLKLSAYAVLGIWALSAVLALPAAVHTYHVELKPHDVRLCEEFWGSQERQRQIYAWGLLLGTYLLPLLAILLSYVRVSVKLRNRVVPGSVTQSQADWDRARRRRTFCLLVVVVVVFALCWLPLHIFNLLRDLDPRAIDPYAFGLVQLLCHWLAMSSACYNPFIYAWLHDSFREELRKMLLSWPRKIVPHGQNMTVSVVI

T2: human PrRP receptor GPR10 (human, UniProt P49683 1-370)
T2 construct: whole, on cells; also called GPR10 human receptor transfected in CHO cells; human GPR10 receptor
T2 sequence (looked up): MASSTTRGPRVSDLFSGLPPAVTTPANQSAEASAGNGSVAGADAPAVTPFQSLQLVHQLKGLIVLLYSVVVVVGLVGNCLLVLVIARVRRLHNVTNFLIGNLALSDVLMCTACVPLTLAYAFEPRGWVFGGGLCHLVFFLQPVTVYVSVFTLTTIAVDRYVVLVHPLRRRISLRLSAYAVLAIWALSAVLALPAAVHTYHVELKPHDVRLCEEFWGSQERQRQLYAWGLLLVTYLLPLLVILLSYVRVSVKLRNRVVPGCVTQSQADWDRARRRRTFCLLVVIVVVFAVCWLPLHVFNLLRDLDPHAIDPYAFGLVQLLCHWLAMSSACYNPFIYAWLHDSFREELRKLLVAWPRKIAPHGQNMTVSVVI

B1: analog no. 19 (peptide)
peptide: SHQRPADTHWYPRG[Nle]FPTIGRITARNGEVSR
notes: scrambled peptide; also called 19 scram
B2: Human PrRP20 (peptide)
peptide: TPDINPAWYASRGIRPVGRF-NH2
notes: synthetic peptide
B3: analog no. 46 (peptide)
peptide: Myristoyl-SRAHQHSMETRTPDINPAWYTGRGIRPVGRF-NH2
SMILES: CCCCCCCCCCCCCC(=O)N[C@@H](CO)C(=O)N[C@@H](CCCNC(=N)N)C(=O)N[C@@H](C)C(=O)N[C@@H](Cc1c[nH]cn1)C(=O)N[C@@H](CCC(N)=O)C(=O)N[C@@H](Cc1c[nH]cn1)C(=O)N[C@@H](CO)C(=O)N[C@@H](CCSC)C(=O)N[C@@H](CCC(=O)O)C(=O)N[C@H](C(=O)N[C@@H](CCCNC(=N)N)C(=O)N[C@H](C(=O)N1CCC[C@H]1C(=O)N[C@@H](CC(=O)O)C(=O)N[C@H](C(=O)N[C@@H](CC(N)=O)C(=O)N1CCC[C@H]1C(=O)N[C@@H](C)C(=O)N[C@@H](Cc1c[nH]c2ccccc12)C(=O)N[C@@H](Cc1ccc(O)cc1)C(=O)N[C@H](C(=O)NCC(=O)N[C@@H](CCCNC(=N)N)C(=O)NCC(=O)N[C@H](C(=O)N[C@@H](CCCNC(=N)N)C(=O)N1CCC[C@H]1C(=O)N[C@H](C(=O)NCC(=O)N[C@@H](CCCNC(=N)N)C(=O)N[C@@H](Cc1ccccc1)C(N)=O)C(C)C)[C@@H](C)CC)[C@@H](C)O)[C@@H](C)CC)[C@@H](C)O)[C@@H](C)O
B4: analog no. 47 (peptide)
peptide: Palmitoyl-SRAHQHSMETRTPDINPAWYTGRGIRPVGRF-NH2
SMILES: CCCCCCCCCCCCCCCC(=O)N[C@@H](CO)C(=O)N[C@@H](CCCNC(=N)N)C(=O)N[C@@H](C)C(=O)N[C@@H](Cc1c[nH]cn1)C(=O)N[C@@H](CCC(N)=O)C(=O)N[C@@H](Cc1c[nH]cn1)C(=O)N[C@@H](CO)C(=O)N[C@@H](CCSC)C(=O)N[C@@H](CCC(=O)O)C(=O)N[C@H](C(=O)N[C@@H](CCCNC(=N)N)C(=O)N[C@H](C(=O)N1CCC[C@H]1C(=O)N[C@@H](CC(=O)O)C(=O)N[C@H](C(=O)N[C@@H](CC(N)=O)C(=O)N1CCC[C@H]1C(=O)N[C@@H](C)C(=O)N[C@@H](Cc1c[nH]c2ccccc12)C(=O)N[C@@H](Cc1ccc(O)cc1)C(=O)N[C@H](C(=O)NCC(=O)N[C@@H](CCCNC(=N)N)C(=O)NCC(=O)N[C@H](C(=O)N[C@@H](CCCNC(=N)N)C(=O)N1CCC[C@H]1C(=O)N[C@H](C(=O)NCC(=O)N[C@@H](CCCNC(=N)N)C(=O)N[C@@H](Cc1ccccc1)C(N)=O)C(C)C)[C@@H](C)CC)[C@@H](C)O)[C@@H](C)CC)[C@@H](C)O)[C@@H](C)O
B5: analog no. 26 (peptide)
peptide: Myristoyl-[dF][dR]GVPRIGRGTYWAPNIDPT-NH2
SMILES: CCCCCCCCCCCCCC(=O)N[C@H](Cc1ccccc1)C(=O)N[C@H](CCCNC(=N)N)C(=O)NCC(=O)N[C@H](C(=O)N1CCC[C@H]1C(=O)N[C@@H](CCCNC(=N)N)C(=O)N[C@H](C(=O)NCC(=O)N[C@@H](CCCNC(=N)N)C(=O)NCC(=O)N[C@H](C(=O)N[C@@H](Cc1ccc(O)cc1)C(=O)N[C@@H](Cc1c[nH]c2ccccc12)C(=O)N[C@@H](C)C(=O)N1CCC[C@H]1C(=O)N[C@@H](CC(N)=O)C(=O)N[C@H](C(=O)N[C@@H](CC(=O)O)C(=O)N1CCC[C@H]1C(=O)N[C@H](C(N)=O)[C@@H](C)O)[C@@H](C)CC)[C@@H](C)O)[C@@H](C)CC)C(C)C
notes: scrambled peptide; also called 26 scram
B6: analog no. 50 (peptide)
peptide: TPDINPK(Palmitoyl)WYASRGIRPVGRF-NH2
modifications: N-terminus assumed
SMILES: CCCCCCCCCCCCCCCC(=O)NCCCC[C@H](NC(=O)[C@@H]1CCCN1C(=O)[C@H](CC(N)=O)NC(=O)[C@@H](NC(=O)[C@H](CC(=O)O)NC(=O)[C@@H]1CCCN1C(=O)[C@@H](N)[C@@H](C)O)[C@@H](C)CC)C(=O)N[C@@H](Cc1c[nH]c2ccccc12)C(=O)N[C@@H](Cc1ccc(O)cc1)C(=O)N[C@@H](C)C(=O)N[C@@H](CO)C(=O)N[C@@H](CCCNC(=N)N)C(=O)NCC(=O)N[C@H](C(=O)N[C@@H](CCCNC(=N)N)C(=O)N1CCC[C@H]1C(=O)N[C@H](C(=O)NCC(=O)N[C@@H](CCCNC(=N)N)C(=O)N[C@@H](Cc1ccccc1)C(N)=O)C(C)C)[C@@H](C)CC
B7: analog no. 49 (peptide)
peptide: TPDIK(Palmitoyl)PAWYASRGIRPVGRF-NH2
modifications: N-terminus assumed
SMILES: CCCCCCCCCCCCCCCC(=O)NCCCC[C@H](NC(=O)[C@@H](NC(=O)[C@H](CC(=O)O)NC(=O)[C@@H]1CCCN1C(=O)[C@@H](N)[C@@H](C)O)[C@@H](C)CC)C(=O)N1CCC[C@H]1C(=O)N[C@@H](C)C(=O)N[C@@H](Cc1c[nH]c2ccccc12)C(=O)N[C@@H](Cc1ccc(O)cc1)C(=O)N[C@@H](C)C(=O)N[C@@H](CO)C(=O)N[C@@H](CCCNC(=N)N)C(=O)NCC(=O)N[C@H](C(=O)N[C@@H](CCCNC(=N)N)C(=O)N1CCC[C@H]1C(=O)N[C@H](C(=O)NCC(=O)N[C@@H](CCCNC(=N)N)C(=O)N[C@@H](Cc1ccccc1)C(N)=O)C(C)C)[C@@H](C)CC
B8: analog no. 44 (peptide)
peptide: Palmitoyl-SRTHRHSMEIRTPDINPAWYASRGIRPVGRF-NHMe
SMILES: CCCCCCCCCCCCCCCC(=O)N[C@@H](CO)C(=O)N[C@@H](CCCNC(=N)N)C(=O)N[C@H](C(=O)N[C@@H](Cc1c[nH]cn1)C(=O)N[C@@H](CCCNC(=N)N)C(=O)N[C@@H](Cc1c[nH]cn1)C(=O)N[C@@H](CO)C(=O)N[C@@H](CCSC)C(=O)N[C@@H](CCC(=O)O)C(=O)N[C@H](C(=O)N[C@@H](CCCNC(=N)N)C(=O)N[C@H](C(=O)N1CCC[C@H]1C(=O)N[C@@H](CC(=O)O)C(=O)N[C@H](C(=O)N[C@@H](CC(N)=O)C(=O)N1CCC[C@H]1C(=O)N[C@@H](C)C(=O)N[C@@H](Cc1c[nH]c2ccccc12)C(=O)N[C@@H](Cc1ccc(O)cc1)C(=O)N[C@@H](C)C(=O)N[C@@H](CO)C(=O)N[C@@H](CCCNC(=N)N)C(=O)NCC(=O)N[C@H](C(=O)N[C@@H](CCCNC(=N)N)C(=O)N1CCC[C@H]1C(=O)N[C@H](C(=O)NCC(=O)N[C@@H](CCCNC(=N)N)C(=O)N[C@@H](Cc1ccccc1)C(=O)NC)C(C)C)[C@@H](C)CC)[C@@H](C)CC)[C@@H](C)O)[C@@H](C)CC)[C@@H](C)O
B9: analog no. 48 (peptide)
peptide: SRTHRHSMEIK(Palmitoyl)TPDINPAWYASRGIRPVGRF-NH2
B10: analog no. 45 (peptide)
peptide: Palmitoyl-SRTHRHSMEIRTPDINPAWYASRGIRPVGRF-NOMe
SMILES: CCCCCCCCCCCCCCCC(=O)N[C@@H](CO)C(=O)N[C@@H](CCCNC(=N)N)C(=O)N[C@H](C(=O)N[C@@H](Cc1c[nH]cn1)C(=O)N[C@@H](CCCNC(=N)N)C(=O)N[C@@H](Cc1c[nH]cn1)C(=O)N[C@@H](CO)C(=O)N[C@@H](CCSC)C(=O)N[C@@H](CCC(=O)O)C(=O)N[C@H](C(=O)N[C@@H](CCCNC(=N)N)C(=O)N[C@H](C(=O)N1CCC[C@H]1C(=O)N[C@@H](CC(=O)O)C(=O)N[C@H](C(=O)N[C@@H](CC(N)=O)C(=O)N1CCC[C@H]1C(=O)N[C@@H](C)C(=O)N[C@@H](Cc1c[nH]c2ccccc12)C(=O)N[C@@H](Cc1ccc(O)cc1)C(=O)N[C@@H](C)C(=O)N[C@@H](CO)C(=O)N[C@@H](CCCNC(=N)N)C(=O)NCC(=O)N[C@H](C(=O)N[C@@H](CCCNC(=N)N)C(=O)N1CCC[C@H]1C(=O)N[C@H](C(=O)NCC(=O)N[C@@H](CCCNC(=N)N)C(=O)N[C@@H](Cc1ccccc1)C(=O)NOC)C(C)C)[C@@H](C)CC)[C@@H](C)CC)[C@@H](C)O)[C@@H](C)CC)[C@@H](C)O

molecular target: T1, rat PrRP receptor in RC-4B/C cells; experiment: competition with 125I-rat PrRP31, RC-4B/C cells
Experimental: The rat pituitary cell line RC-4B/C (ATCC, Manassas, USA) was grown on 24-well plates which had their bottom coated with polyethyleneimine. The cells were grown to the optimal density of 300-450 thousand cells per well.
(§1) Plates were incubated for 60 minutes at room temperature. After incubation, the cells were solubilized in 0.1 mol/l solution of NaOH, and the radioactivity bound to the cells was counted using a γ-counter. The experiments were performed in duplicate, and repeated at least three times.

Binder | % of PrRP31 [%] | Ki [µM]
B1 | 4e-05 | 1320
B2 | 277 | 0.00178
B3 | 657 | 0.00075
B4 | 1200 | 0.00041
B5 | 1.4 | 0.364

molecular target: T2, human PrRP receptor GPR10; experiment: competition with 125I-human PrRP31, CHO cells with human GPR10
Experimental: CHO cells transfected with human PrRP receptor GPR10 (Perkin Elmer, USA) were grown on 24-well plates coated with polyethyleneimine. […] The following agents were used for the experiment: binding buffer (25 mmol.1⁻¹ Tris, pH 7.4; 118 mmol.1⁻¹ NaCl, 10 mmol.1⁻¹ MgCl₂, 1 mmol.1⁻¹ CaCl₂, 5.5 mmol.1⁻¹ glucose, 0.5 mg/ml BSA), unlabeled analogs of PrRP (i.e. the analog being tested) at a final concentration between 10⁻¹¹ to 10⁻⁴ mol.1⁻¹, and radiolabeled human ¹²⁵1-PrRP31 at a final concentration of 5×10⁻¹¹ mol.1⁻¹.
as §1

Binder | % of PrRP31 [%] | Ki [µM]
B6 | 69 | 0.00564
B7 | 90 | 0.00434
B8 | 123 | 
B9 | 61 | 0.00637
B10 | 92 | 
